# Laboratory results: article PMC6624210 (Nature Communications, 2019)
# Experiments:
# [1] = target: MERS-CoV spike glycoprotein S1 N-terminal domain (residues 18-353), wild type (MERS-CoV, EMC strain (NTD sequence …, UniProt K9N5Q8)); assay: cell-based or functional assay
# [2] = target: recombinant receptor-binding domain of MERS-CoV S glycoprotein (residues 367-606) (MERS-CoV, EMC/2012 (strain used …, UniProt K0BRG7)); assay: ELISA; details: both partners purified
# MERS-CoV spike glycoprotein S1 N-terminal domain (residues 18-353), wild type (MERS-CoV, EMC strain, sequence (K9N5Q8 18-353): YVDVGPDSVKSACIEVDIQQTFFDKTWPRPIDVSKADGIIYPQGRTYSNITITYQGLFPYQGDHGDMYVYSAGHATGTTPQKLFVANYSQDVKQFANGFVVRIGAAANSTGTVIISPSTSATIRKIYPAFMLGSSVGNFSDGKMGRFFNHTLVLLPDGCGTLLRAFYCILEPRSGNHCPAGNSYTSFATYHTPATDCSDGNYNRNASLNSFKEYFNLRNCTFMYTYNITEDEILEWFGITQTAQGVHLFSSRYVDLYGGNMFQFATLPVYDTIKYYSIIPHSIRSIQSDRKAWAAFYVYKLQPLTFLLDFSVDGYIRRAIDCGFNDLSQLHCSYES
binder,measurement,setting,value
"mouse monoclonal antibody 7D10 (antibody, V domains shown) VH: EVQLVESGAEVVKPGASVKMSCKASGYPFTSYNIHWIKQTPGQGLEWIGAIYPGNGDTSYTQKFKVKATLTSDKSSSTAYMQLSSLTSEDSAVYFCARYGNYPSYAMDYWGQGTSVTVSS VL: DIVMTQSPASLTVSLGQRATISCRASKSVSASGYNYLHWYQQRPGQPPKLLIYLAFNLESGVPARFNGSGSGTDFTLNIHPVEEEDAATYYCQHSRDLPFTFGSGTKLEIK",IC50 of neutralisation of pseudotyped MERS-CoV on Huh7 cells (luciferase),[1],~0.18 µg/mL
same,binding result,[2],no binding (tested: 4 μg mL^−1)
"7D10 scFv (VL, triple GGGS linker, VH) (scFv, V domains shown) VH: EVQLVESGAEVVKPGASVKMSCKASGYPFTSYNIHWIKQTPGQGLEWIGAIYPGNGDTSYTQKFKVKATLTSDKSSSTAYMQLSSLTSEDSAVYFCARYGNYPSYAMDYWGQGTSVTVSS VL: DIVMTQSPASLTVSLGQRATISCRASKSVSASGYNYLHWYQQRPGQPPKLLIYLAFNLESGVPARFNGSGSGTDFTLNIHPVEEEDAATYYCQHSRDLPFTFGSGTKLEIK",IC50 of inhibition of cell entry of pseudotyped MERS-CoV (Huh7 cells),[1],0.28 µg/mL
